These results are taken from US5474766, “Methods and compositions for inhibition of hepatic clearance of tissue-type plasminogen activator” (Washington University, dated 1995).

The target in assay [1] is low density lipoprotein receptor-related protein (LRP) on rat MH1C1 hepatoma cells (rat). As to the kind of experiment: competition of 125I-t-PA binding to MH1C1 cells.
The target is the same in assay [2]. As to the kind of experiment: saturation binding to MH1C1 cells, Scatchard; simultaneous assays, n=4.
Assay [3] shares this target. Kind of assay: saturation binding to MH1C1 cells, Scatchard; summary of 7 experiments.
For assay [4] the target is unchanged. As to the kind of experiment: saturation binding to MH1C1 cells pre-incubated with 0.1% saponin, Scatchard; n=3 (ligand label as printed, doubtful).
The target is the same in assay [5]. As to the kind of experiment: competition of 125I-t-PA binding to MH1C1 cells by recombinant rat 39 kDa protein.
For assay [6] the target is unchanged. Kind of assay: competition of 4 nM 125I-t-PA binding to MH1C1 cells; buffer alone exhibited 20-30% inhibition.
Assay [7] has as its target T1, low density lipoprotein receptor-related protein (LRP) on human hepatoma HepG2 cells (human, UniProt Q07954). As to the kind of experiment: saturation binding to HepG2 cells at 4 C, Scatchard; one experiment. As to the method: (§1) Cells were seeded into multiwell (12 wells/plate) disposable plastic tissue culture plates 2 days prior to assay. Ligand binding buffer for t-PA was composed of phosphate-buffered saline (PBS) supplemented with 0.2 mM CaCl_2 and 10 mM EACA, whereas PBSc (PBS containing 1 mM CaCl_2 and 0.5 mM MgCl_2) was used for 39 kDa protein binding. Binding experiments were performed at 4° C. to prevent possible concomitant internalization during the binding interval. Cell monolayers were washed three times on ice with prechilled binding buffer. Binding was initiated by adding 0.5 ml binding buffer containing selected concentrations of ^125I-labelled ligand in the absence or presence of an excess unlabelled ligand (1 μM). After incubation at 4° C. for 1.5 hours, buffer containing unbound ligand was removed. Cells were then washed three times with binding buffer and lysed in 0.0625M Tris-HCl, pH 6.8, containing 0.2% (w/v) SDS and 10% (v/v) glycerol ("low-SDS lysis buffer"). Radioactivity of cell lysates was quantified by γ scintillation spectrometry. For some experiments, cell lysates were further analyzed by SDS-PAGE and autoradiography as described below. Total binding was determined in the presence of ^125I-labelled ligand alone. Nonspecific binding was determined in the presence of excess unlabelled ligand. Specific ligand binding was defined as the difference between total and nonspecific binding. […]

Assay [8] addresses T1, low density lipoprotein …. Kind of assay: saturation binding to HepG2 cells at 4 C, Scatchard; five experiments. The method, then:
as §1

Assay [9] has as its target low density lipoprotein receptor-related protein (LRP) on human hepatoma HepG2 cells (human) (UniProt Q07954).
For assay [10], the target named is low density lipoprotein receptor-related protein (LRP) on rat MH1C1 hepatoma cells (rat). Kind of assay: saturation binding to MH1C1 cells, Scatchard; summary of 10 experiments.
The target is the same in assay [11]. Kind of assay: saturation binding to untreated MH1C1 cells, Scatchard; n=3.
For assay [12] the target is unchanged. Kind of assay: competition of 3 nM 125I-t-PA binding to MH1C1 cells at 4 C.
The target is the same in assay [13]. As to the kind of experiment: competition of 4 nM 125I-t-PA binding to MH1C1 cells, protein eluted from PVDF.
For assay [14] the target is unchanged. Kind of assay: saturation binding of 125I-ligand to MH1C1 cells at 4 C, Scatchard analysis (one experiment, FIG. 1A).
Assay [15] has as its target low density lipoprotein receptor-related protein (LRP) on human hepatoma HepG2 cells (human) (UniProt Q07954). The source holds these as a separate data set.
The target of assay [16] is low density lipoprotein receptor-related protein (LRP) on rat MH1C1 hepatoma cells (rat).
The target is the same in assay [17]. As to the kind of experiment: competition of 4 nM 125I-t-PA binding to MH1C1 cells, fragment eluted from PVDF.

Some results are limits rather than exact numbers.

In [1], “tissue-type plasminogen activator (t-PA) (from UniProt P00750) (enzyme)” registered a Ki of 8 nM. For the same molecule, the Kd stood at 5.6 nM in assay [2], 4.9 nM in assay [3] and 9.1 nM in [4].
Take “rat 39 kDa protein (from UniProt Q99068) (ligand)”: the Ki in [5] is 0.5 nM.

B1: 20 kDa N-terminal fragment of the 39 kDa protein (ligand)
chain: YSREKNQPKPSPKRESGEEFRMEKLNQLWEKAQRLHLPPVRLAELHADLKIQERDELAWKKLKLDGLDEDGEKEARLIRNLNVILAKYGLDGKKDARQVTSNSLSGTQEDGLDD
Consider B1, for which the percent inhibition at 16 nM in assay [6] turned out to be 10%.

B2: 39 kDa protein (ligand)
chain: YSREKNQPKPSPKRESGEEFRMEKLNQLWEKAQRLHLPPVRLAELHADLKIQERDELAWKKLKLDGLDEDGEKEARLIRNLNVILAKYGLDGKKDARQVTSNSLSGTQEDGLDDPRLEKLWHKAKTSGKFSGEELDKLWREFLHHKEKVHEYNVLLETLSRTEEIHENVISPSDLSDIKGSVLHSRHTELKEKLRSINQGLDRLRRVSHQGYSTEAEFEEPRVIDLWDLAQSANLTDKELEAFREELKHFEAKIEKHNHYQKQLEIAHEKLRHAESVGDGERVSRSREKHALLEGRTKELGYTVKKHLQDLSGRISRARHNEL
As to B2, the Kd in [7] was found to be 4.9 nM; in assay [8], 5.1 nM; in [10], 3.3 nM; in assay [2], 3.5 nM; in assay [11], 2.7 nM; in assay [14] it was 3.2 nM. Moreover, the specific degradation of ^125 I-t-PA by HepG2 cells (TCA-soluble radioactivity) in assay [9] was 75%. For the same molecule, the IC50 in assay [12] is less than 1 nM; in [13], 1 nM. For the same molecule, the concentration at 90% inhibition in [13] was in the range of 8 to 10 nM. Also, the specific ^125 I-t-PA uptake by HepG2 cells (cell-associated radioactivity) in assay [15] was determined as 70%. The rate of ligand uptake and degradation at 37° C. (fmol/10^6 cells/minute) in [16] is 52.

B3: 28 kDa C-terminal fragment of the 39 kDa protein (ligand)
chain: PRLEKLWHKAKTSGKFSGEELDKLWREFLHHKEKVHEYNVLLETLSRTEEIHENVISPSDLSDIKGSVLHSRHTELKEKLRSINQGLDRLRRVSHQGYSTEAEFEEPRVIDLWDLAQSANLTDKELEAFREELKHFEAKIEKHNHYQKQLEIAHEKLRHAESVGDGERVSRSREKHALLEGRTKELGYTVKKHLQDLSGRISRARHNEL
For B3, in assay [17], the IC50 turned out to be 4 nM and the concentration at 90% inhibition was 16 nM.
